The source of these data is US20050048070A1 (published 2005).

In test [1] the target is T1, cleaved K8/K18 heterotypic complexes from adenovirus-infected HeLa cells (human, UniProt P05787 2-483; P05783 75-430, limits assumed).
T1 construct: also called cytokeratin from HeLa cells infected with adenovirus
T1 chain 1: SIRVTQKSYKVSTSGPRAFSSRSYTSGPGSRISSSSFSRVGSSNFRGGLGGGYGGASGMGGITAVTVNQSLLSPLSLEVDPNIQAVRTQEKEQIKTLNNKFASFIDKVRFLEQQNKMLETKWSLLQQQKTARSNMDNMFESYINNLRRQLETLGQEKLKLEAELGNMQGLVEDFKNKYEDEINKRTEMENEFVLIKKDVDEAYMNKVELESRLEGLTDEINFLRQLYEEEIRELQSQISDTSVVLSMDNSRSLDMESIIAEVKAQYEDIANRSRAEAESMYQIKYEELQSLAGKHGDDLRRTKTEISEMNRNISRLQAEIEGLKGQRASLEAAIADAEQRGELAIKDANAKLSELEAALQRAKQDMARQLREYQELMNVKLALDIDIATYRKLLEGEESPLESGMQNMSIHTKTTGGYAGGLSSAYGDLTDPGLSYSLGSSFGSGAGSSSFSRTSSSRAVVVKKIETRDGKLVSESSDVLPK
T1 chain 2: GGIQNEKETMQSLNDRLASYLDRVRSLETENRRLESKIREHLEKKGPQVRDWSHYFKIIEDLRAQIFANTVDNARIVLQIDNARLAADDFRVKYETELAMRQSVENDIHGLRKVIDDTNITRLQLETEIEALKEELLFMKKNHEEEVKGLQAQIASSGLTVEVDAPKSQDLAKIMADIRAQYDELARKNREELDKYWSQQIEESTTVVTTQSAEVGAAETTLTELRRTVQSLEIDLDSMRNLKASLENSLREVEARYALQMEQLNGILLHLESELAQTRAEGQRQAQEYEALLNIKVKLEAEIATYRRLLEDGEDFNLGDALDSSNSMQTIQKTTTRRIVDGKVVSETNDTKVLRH
In words: Western blot of cytokeratin purified from adenovirus-infected HeLa cells (data not shown).

Test [2] has as its target T2, K8(1-85)/intact K18 heterotypic complex (human, UniProt P05787 2-86; P05783 2-430).
T2 construct: Heterotypic complex of two GST fusion proteins; also called intact K8(1-85)/intact K18; not shown: glutathione S-transferase (GST) fusion partner, modified pGEX-2T vector
T2 chain 1: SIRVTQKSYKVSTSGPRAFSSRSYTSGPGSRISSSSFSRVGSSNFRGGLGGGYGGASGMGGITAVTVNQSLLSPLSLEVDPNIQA
T2 chain 2: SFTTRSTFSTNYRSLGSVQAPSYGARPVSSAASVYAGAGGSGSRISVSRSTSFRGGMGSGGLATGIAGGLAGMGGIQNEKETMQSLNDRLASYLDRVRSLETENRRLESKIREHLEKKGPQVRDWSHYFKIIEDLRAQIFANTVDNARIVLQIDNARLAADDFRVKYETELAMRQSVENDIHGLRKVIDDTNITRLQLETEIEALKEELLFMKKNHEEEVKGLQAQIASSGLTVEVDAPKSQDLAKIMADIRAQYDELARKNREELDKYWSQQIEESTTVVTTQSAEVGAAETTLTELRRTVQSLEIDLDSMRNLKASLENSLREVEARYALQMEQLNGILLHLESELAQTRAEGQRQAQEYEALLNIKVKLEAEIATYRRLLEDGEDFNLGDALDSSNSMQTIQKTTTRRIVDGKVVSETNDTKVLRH
Briefly: summary map of the heterotypic association assay: GST deletion protein incubated with the complementary keratin, then stained with COU-1.

In test [3] the target is T3, K8(1-65)/intact K18 heterotypic complex (human, UniProt P05787 2-66; P05783 2-430).
T3 construct: Heterotypic complex of two GST fusion proteins; not shown: glutathione S-transferase (GST) fusion partner, modified pGEX-2T vector
T3 sequence 1: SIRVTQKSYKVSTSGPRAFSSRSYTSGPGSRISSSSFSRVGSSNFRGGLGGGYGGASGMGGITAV
T3 sequence 2: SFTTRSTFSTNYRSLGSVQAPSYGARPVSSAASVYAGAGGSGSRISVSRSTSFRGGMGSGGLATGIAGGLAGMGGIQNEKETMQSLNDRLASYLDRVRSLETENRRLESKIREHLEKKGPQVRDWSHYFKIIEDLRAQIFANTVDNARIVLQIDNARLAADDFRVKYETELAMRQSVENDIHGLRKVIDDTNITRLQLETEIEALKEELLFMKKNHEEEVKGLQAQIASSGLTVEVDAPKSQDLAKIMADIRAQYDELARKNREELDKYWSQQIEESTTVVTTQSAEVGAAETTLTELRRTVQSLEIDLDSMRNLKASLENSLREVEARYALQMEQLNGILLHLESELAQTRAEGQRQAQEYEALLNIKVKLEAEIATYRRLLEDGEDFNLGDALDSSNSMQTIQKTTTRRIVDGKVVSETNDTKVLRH
Described as above.

Test [4] has as its target T4, intact K8/K18(1-72) heterotypic complex (human, UniProt P05787 2-483; P05783 2-73).
T4 construct: Heterotypic complex of two GST fusion proteins; also called K18(1-72)/intact K8; not shown: glutathione S-transferase (GST) fusion partner, modified pGEX-2T vector
T4 chain 1: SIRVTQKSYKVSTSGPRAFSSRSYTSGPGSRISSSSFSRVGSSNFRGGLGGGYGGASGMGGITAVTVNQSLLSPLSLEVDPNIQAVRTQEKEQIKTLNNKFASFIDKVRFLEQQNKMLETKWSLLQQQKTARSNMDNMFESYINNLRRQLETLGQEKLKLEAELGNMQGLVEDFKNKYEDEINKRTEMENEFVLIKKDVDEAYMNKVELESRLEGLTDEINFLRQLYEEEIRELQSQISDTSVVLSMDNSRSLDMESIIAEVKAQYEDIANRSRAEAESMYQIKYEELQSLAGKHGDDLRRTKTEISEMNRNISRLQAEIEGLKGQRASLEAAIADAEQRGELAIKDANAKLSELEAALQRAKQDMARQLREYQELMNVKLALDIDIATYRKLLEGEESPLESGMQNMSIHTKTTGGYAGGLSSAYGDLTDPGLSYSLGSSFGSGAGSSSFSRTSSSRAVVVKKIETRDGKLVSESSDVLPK
T4 chain 2: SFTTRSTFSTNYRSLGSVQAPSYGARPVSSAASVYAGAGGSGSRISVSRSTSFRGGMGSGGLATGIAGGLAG
Described as above.

Test [5] deals with T5, K8(1-233)/K18(1-72) heterotypic complex (human, UniProt P05787 2-234; P05783 2-73).
T5 construct: Heterotypic complex of two GST fusion proteins; not shown: glutathione S-transferase (GST) fusion partner, modified pGEX-2T vector
T5 sequence 1: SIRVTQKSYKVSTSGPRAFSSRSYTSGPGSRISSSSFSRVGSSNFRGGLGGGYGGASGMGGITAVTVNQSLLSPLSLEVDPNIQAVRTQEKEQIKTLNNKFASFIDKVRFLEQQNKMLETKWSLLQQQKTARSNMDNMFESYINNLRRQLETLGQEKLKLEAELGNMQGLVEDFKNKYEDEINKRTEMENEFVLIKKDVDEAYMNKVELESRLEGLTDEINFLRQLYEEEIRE
T5 sequence 2: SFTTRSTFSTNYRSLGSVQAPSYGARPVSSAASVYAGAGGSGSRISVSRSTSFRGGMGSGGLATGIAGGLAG
In words: heterotypic association assay: blotted K18 proteins incubated with purified K8(1-233), then stained with COU-1.

In test [6] the target is T6, bovine serum albumin (bovine, UniProt P02769 25-607).
T6 construct: Irrelevant antigen in the ELISA; also called BSA
T6 sequence (P02769 25-607 limits assumed): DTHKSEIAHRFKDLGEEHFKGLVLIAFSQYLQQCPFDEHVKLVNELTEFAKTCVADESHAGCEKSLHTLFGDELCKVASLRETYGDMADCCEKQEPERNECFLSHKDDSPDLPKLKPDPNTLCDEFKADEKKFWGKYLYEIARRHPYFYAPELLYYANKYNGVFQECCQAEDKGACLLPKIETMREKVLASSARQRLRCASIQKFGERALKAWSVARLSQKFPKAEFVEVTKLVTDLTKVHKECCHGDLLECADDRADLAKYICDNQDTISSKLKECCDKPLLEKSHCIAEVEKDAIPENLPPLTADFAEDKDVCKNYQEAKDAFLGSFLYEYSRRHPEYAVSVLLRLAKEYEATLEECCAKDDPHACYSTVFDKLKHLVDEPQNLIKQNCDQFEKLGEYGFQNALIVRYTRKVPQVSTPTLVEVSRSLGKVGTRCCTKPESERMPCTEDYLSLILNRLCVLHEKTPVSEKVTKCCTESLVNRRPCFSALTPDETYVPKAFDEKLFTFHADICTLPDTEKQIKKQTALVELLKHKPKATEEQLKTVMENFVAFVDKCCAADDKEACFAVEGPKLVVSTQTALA
In words: ELISA on coated antigens (data not shown). For orientation: In an ELISA, binding on a coated surface is turned into a signal by an enzyme label.

Test [7] concerns the target T7, ovalbumin (UniProt P01012 2-386).
T7 construct: Irrelevant antigen in the ELISA
T7 sequence (looked up): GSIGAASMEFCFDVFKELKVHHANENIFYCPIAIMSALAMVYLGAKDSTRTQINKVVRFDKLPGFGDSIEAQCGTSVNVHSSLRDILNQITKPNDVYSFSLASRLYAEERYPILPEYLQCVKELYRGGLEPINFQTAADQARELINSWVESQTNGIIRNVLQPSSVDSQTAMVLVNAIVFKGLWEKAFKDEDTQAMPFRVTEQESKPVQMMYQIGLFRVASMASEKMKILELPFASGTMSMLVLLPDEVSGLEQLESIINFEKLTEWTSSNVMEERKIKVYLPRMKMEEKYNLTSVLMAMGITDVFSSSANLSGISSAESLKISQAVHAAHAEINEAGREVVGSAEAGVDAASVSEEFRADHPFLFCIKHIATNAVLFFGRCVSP
Briefly: ELISA on coated antigens (data not shown).

B1: human monoclonal IgM antibody COU-1 (antibody, V domains shown)
VH: GAEVKKPGASVKVSCKASDYTFSSYYMHWVRQAPGQGLEWMGIINPSGGSTSYAQKFQGRVTMTRDTSTNTVYMELSSLRSEDTAVYYCARDQVVVAATLSNYGMDVWGQGTTVTVSS
VL: ELTQSPGTLSLSPGERATLSCRASQSVSSSYLAWYQQKPGQAPRLLIYDASNRATGIPARFSGSGSGTDFTLTISSLEPEDFAVYYCQQGTNWGIAFGQGTRLDIKR
notes: Human IgM with kappa light chain, secreted by hybridoma B9165 (ECACC 87040201), purified from culture supernatant; also called HMab COU-1; HuMab COU-1
In the case of B1, the binding result was “no binding” in test [1]; “no binding (tested: 5 µg/ml COU-1 (P-0285))” in test [2]; “no binding (tested: 5 µg/ml COU-1 (P-0285))” in test [3]; “no binding (tested: 5 µg/ml COU-1 (P-0285))” in test [4]; “no binding (tested: 5 µg/ml COU-1 (P-0285))” in test [5]; “no binding” in test [6]. The binding result in test [7] is recorded as “no binding”.
